The target of test [1] is T1, pp65-loaded RMA-S-HHD cells (UniProt P06725+P61769).
T1 construct: expressed in transfected cells; host or cells: murine TAP2-deficient RMA-S cells (RMA-S-HHD)
In words: Flow cytometry on peptide-loaded RMA-S-HHD cells. The note with it: Fab, control: EBV derived peptide. The class given is cell-based, murine. As to the method:
Flow cytometry—The B cell line RMAS-HHD, which is transfected with a single-chain β2m-HLA-A2 gene, the EBV-transformed HLA-A2^+ JY cells, and the HLA-A2− B cell line APD-70 were used to determine the reactivity of the recombinant Fab Abs with cell surface-expressed HLA-A2/peptide complexes. Peptide pulsing was performed as indicated: 10^6 cells were washed twice with serum-free RPMI and incubated overnight at 26° C. or 37° C., respectively, in medium containing 1-50 μM of the peptide. The RMAS-HHD cells were subsequently incubated at 37° C. for 2-3 hours to stabilize cell surface expression of MHC-peptide complexes.
Cells were incubated for 60 minutes at 4° C. with recombinant Fab Abs (10 μg/ml) in 100 μl PBS. After one wash, the cells were incubated with 1 μg anti-human Fab (Jackson ImmunoResearch) for another 60 minutes at 4° C. After three washes, the cells were resuspended in ice-cold PBS. The cells were analyzed by a FACStar flow cytometer (BD Biosciences, San Jose, Calif.).
The pp65495-503 peptide and control peptides were loaded on RMA-S-HHD cells and the ability of the selected Fab Abs to bind to peptide-loaded cells was monitored by flow cytometry.

Test [2] deals with HLA-A2/pp65 complex (pp65 495-503 peptide). Put plainly: ELISA with phage clones and purified Fab Abs, specific complex. The format is binding, human. To be noted: soluble purified Fab. The protocol: ELISA with phage clones and purified Fab Abs—The binding specificities of individual phage clones and soluble Fab were determined by ELISA using biotinylated scMHC-peptide complexes. ELISA plates (Falcon) were coated overnight with BSA-biotin (1 μg/well). After having been washed, the plates were incubated (1 hour, RT) with streptavidin (1 μg/well), washed extensively, and further incubated (1 hour, RT) with 0.5 μg of MHC/peptide complexes. The plates were blocked for 30 minutes at RT with PBS/2% skim milk and subsequently were incubated for 1 hour at RT with phage clones (˜10^9 phages/well) or various concentrations of soluble purified Fab. […]
A large human Fab library containing 3.7×10^10 different Fab clones was used for the selection on biotinylatd HLA-A2/pp65 complexes (De Haard H J., et al., 1999). […] Specificity of the selected phage antibodies against the complex was analyzed by a differential ELISA assay in which binding was tested against specific (pp65 495-503 peptide; SEQ ID NO:3) and non specific (gp100 280-288 peptide; SEQ ID NO:4) biotinylated HLA-A2/peptide complexes. […]
To determine the correct folding of the bound complexes and their stability during the binding assays, the ability of the complexes to react with the conformation-specific mAb, w6/32, that recognizes HLA complexes only when folded correctly and when containing peptide was monitored.
(In general: An ELISA detects its analyte on a solid surface through an enzyme-linked reagent.)

B1: F5: human recombinant TCR-like Fab clone specific for HLA-A2/pp65 495-503; heavy chain SEQ ID NO:20, light chain SEQ ID NO:22 (antibody)
heavy: QVQLQESGPGLVKPSETLSLTCTVSGGSISSSNYYWGWIRQPPGKGLEWIGAIYYSGSTYYNPSLKSRVAISVDTSKNQFSLKLSSVTAADTAVYYCARRIGVAGQWYFDLWGRGTLVTVSSASTKGPSVFPLAPSSKSTSGGTAALGCLVKDYFPEPVTVSWNSGALTSGVHTFPAVLQSSGLYSLSSVVTVPSSSLGTQTYICNVNHKPSNTKVDKKVEPKSC
light: LNFMLTQPHSVSGSPGKTVTISCTRSTGSITSNYVHWYQQRPGSSPTTVICEDNERPSGVPDRFSGSIDISSNSASLTISGLKTEDEADYYCQSYDDSNHISVFGTGTKVTVLGQPKANPCLISDFYPGAVTVAWKADGSPVKAGVETTKPSKQSNNKYAASSYLSLTPEQWKSHRSYSCQVTHEGSTVEKTVAPAECS
modifications: F5 Fab heavy chain polypeptide sequence; F5 Fab light chain polypeptide sequence
With B1, the “reactivity with peptide-loaded RMA-S-HHD cells” value in test [1] is on record as “reacted only with pp65-loaded RMA-S-HHD cells”. The “binding to the specific HLA-A2/pp65 complex” value in test [2] is listed as “Specificity towards HLA-A2/pp65 complex”.

The values are drawn from patent publication US8361473B2, “Antibodies and their uses for diagnosis and treatment of cytomegalovirus infection and associated diseases” (priority 2007, dated 2013).
